The target in one experiment is T1, huCLL1-K244-Avi-Tev-His (human, UniProt Q5QGZ9 65-265).
T1 construct: extracellular domain
T1 sequence (looked up): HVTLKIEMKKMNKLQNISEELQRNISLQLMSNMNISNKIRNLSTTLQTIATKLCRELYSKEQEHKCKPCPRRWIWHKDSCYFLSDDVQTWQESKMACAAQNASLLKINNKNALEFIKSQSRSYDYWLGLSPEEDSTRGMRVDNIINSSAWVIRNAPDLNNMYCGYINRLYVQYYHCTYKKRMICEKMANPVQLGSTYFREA
Put plainly: BLI. On the technique in general: Biolayer interferometry detects binding as a change in optical thickness at a sensor tip.

For the next experiment, the target named is T2, huCLL1-Q244-Avi-Tev-His (human, UniProt Q5QGZ9 65-265).
T2 construct: extracellular domain; also called CLL-1 K244Q
T2 sequence (looked up): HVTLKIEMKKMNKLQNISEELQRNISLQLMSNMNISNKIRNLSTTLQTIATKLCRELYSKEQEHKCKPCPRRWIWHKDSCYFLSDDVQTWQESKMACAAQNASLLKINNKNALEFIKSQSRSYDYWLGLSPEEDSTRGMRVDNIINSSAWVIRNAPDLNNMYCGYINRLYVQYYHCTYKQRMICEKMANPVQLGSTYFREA
Kind of experiment: BLI.
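Further: Bio-layer interferometry with scFvs captured on biosensors via anti-V5 antibody, exposed 2 min to CLL-1 K244 or Q244 protein, 5 min dissociation, scored as binding, no binding or ambiguous.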

Procedure for huCLL1-K244-Avi-Tev-His: (§1) Discovered scFvs were analyzed for binding to huCD33-R69-His or huCD33-G69-Fc recombinant proteins (for anti-CD33 scFvs; for CLL-1 scFvs, huCLL1-K244-Avi-Tev-His or huCLL1-Q244-Avi-Tev-His were used; for FLT3, huFLT3-T227-His or huFLT3-M227-Fc were used) using BLI on a ForteBio Octet HTX instrument. Streptavidin-coated biosensors were loaded with biotinylated anti-V5 tag monoclonal antibody for 5 min and were then quenched and blocked with 20 μM amine-PEG2-Biotin for 5 min. scFvs were captured on biosensors from scFv clone periplasmic extracts. huCD33 (or huCLL-1, or huFLT3) proteins were then associated with the captured scFvs for 2 minutes, followed by dissociation with buffer (1×HBST [10 mM HEPES pH 7.4, 150 mM NaCl, 0.05% Tween-20], 1 g/L BSA) for 5 minutes. […] Data was fitted with 1:1 Langmuir equation and off-rate values were reported.
(§2) Analogous methods were used to assess selectivity of binding of polypeptides to CLL-1 K244 or CLL-1 Q244.
Procedure for huCLL1-Q244-Avi-Tev-His: as §1, §2

B1: Polypeptide No. 82 (scFv, V domains shown)
VH: QVQLVQSGAEVKKPGSSVKVSCKASGGTFSNYDISWVRQAPGQGLEWMGGIIPIFGTANYAQKFQGRVTITADESTSTAYMELSSLRSEDTAVYYCAREAEEGGWFDPWGQGTLVTVSS
VL: EIVMTQSPATLSVSPGERATLSCRASQSVSSYLAWYQQKPGQAPRLLIYGASTRATGIPARFSGSGSGTEFTLTISSLQSEDFAVYYCQQYAFSPITFGQGTKLEIKR
notes: scFv
For the molecule B1, the binding result with huCLL1-K244-Avi-Tev-His was “no binding”; in the experiment with huCLL1-Q244-Avi-Tev-His it was “binds”.

B2: Polypeptide No. 47 (scFv, V domains shown)
VH: EVQLLESGGGLVQPGGSLRLSCAASGFTFDEYAMHWVRQAPGKGLEWVSAIGAGGSTYYADSVKGRFTISRDNSKNTLYLQMNSLRAEDTAVYYCASSLGPELRGVDYYYYGMDVWGQGTTVTVSS
VL: DIVMTQSPLSLPVTPGEPASISCRSSQSLLHSNGYNYLDWYLQKPGQSPQLLIYAASSLQSGVPDRFSGSGSGTDFTLKISRVEAEDVGVYYCMQGIQWPWTFGQGTKVEIKR
notes: scFv
For the molecule B2, the binding result in the experiment with huCLL1-K244-Avi-Tev-His is “binds”; with huCLL1-Q244-Avi-Tev-His, “no binding”.

B3: Polypeptide No. 88 (scFv, V domains shown)
VH: QVQLVQSGAEVKKPGASVKVSCKASGYTFTGYHIHWVRQAPGQGLEWMGRINPNSGGTDYAQKFQGRVTMTRDTSTSTVYMELSSLRSEDTAVYYCARETYSGSYEESFDYWGQGTLVTVSS
VL: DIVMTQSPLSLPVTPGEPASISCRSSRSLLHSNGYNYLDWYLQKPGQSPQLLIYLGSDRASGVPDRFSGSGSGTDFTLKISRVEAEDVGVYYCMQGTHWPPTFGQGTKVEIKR
notes: scFv
On to B3, for which the binding result is on record as “no binding” with huCLL1-K244-Avi-Tev-His and “binds” in the experiment with huCLL1-Q244-Avi-Tev-His.

B4: Polypeptide No. 80 (scFv, V domains shown)
VH: QVQLVQSGAEVKKPGASVKVSCKASGFTFTSYYMHWVRQAPGQGLEWMGWMNPNSGNTGYAQRFQGRVTMTRDTSTSTVYMELSSLRSEDTAVYYCARGHSRTDYGMDVWGQGTTVTVSS
VL: DIQMTQSPSSLSASVGDRVTITCRASQSISSWLAWYQQKPGKAPKLLIYDTSSLQSGVPSRFSGSGSGTDFTLTISSLQPEDFATYYCQQGYSTPLTFGQGTKVEIKR
notes: scFv
Take B4: the results for the binding result in the experiment with huCLL1-K244-Avi-Tev-His and in the experiment with huCLL1-Q244-Avi-Tev-His were “no binding” and “binds”, respectively.

B5: Polypeptide No. 84 (scFv, V domains shown)
VH: QVQLVQSGAEVKKPGASVKVSCKASGGTFSNYAISWVRQAPGQGLEWMGWINPNSGGTNYAQKFQGRVTMTRDTSTSTVYMELSSLRSEDTAVYYCARVGYYDSSGGGMDVWGQGTTVTVSS
VL: DIQMTQSPSSLSASVGDRVTITCRASQSISSWLAWYQQKPGKAPKLLIYDASNLETGVPSRFSGSGSGTDFTLTISSLQPEDFATYYCLQTHSFPLTFGPGTKVDIKR
notes: scFv
With B5, the binding result in the experiment with huCLL1-K244-Avi-Tev-His was “no binding”; in the experiment with huCLL1-Q244-Avi-Tev-His, “binds”.

B6: Polypeptide No. 72 (scFv, V domains shown)
VH: QVQLVQSGAEVKKPGASVKVSCKASGGTFSNYAISWVRQAPGQGLEWMGWISAYNGNSDYAQNLQGRVTMTRDTSTSTVYMELSSLRSEDTAVYYCAIGDYFDYWGQGTLVTVSS
VL: DIQMTQSPSSLSASVGDRVTITCQASEDINKYLNWYQQKPGKAPKLLIYDASNLETGVPSRFSGSGSGTDFTLTISSLQPEDFATYYCQQANSFPLTFGQGTKVEIKR
notes: scFv
B6: the binding result with huCLL1-K244-Avi-Tev-His is “no binding”; in the experiment with huCLL1-Q244-Avi-Tev-His, “binds”.

B7: Polypeptide No. 74 (scFv, V domains shown)
VH: QVQLVQSGAEVKKPGSSVKVSCKASGYTFTKYEINWVRQAPGQGLEWMGGIIPIFGTANYAQKFQGRVTITADESTSTAYMELSSLRSEDTAVYYCARGSGWYTPLFDYWGQGTLVTVSS
VL: DIQMTQSPSSLSASVGDRVTITCRASQGISNNLNWYQQKPGKAPKLLIYDASYLETGVPSRFSGSGSGTDFTLTISSLQPEDFATYYCQQSYSAPLTFGQGTKVEIKR
notes: scFv
Regarding B7, the binding result was “no binding” with huCLL1-K244-Avi-Tev-His and “binds” with huCLL1-Q244-Avi-Tev-His.

B8: Polypeptide No. 86 (scFv, V domains shown)
VH: QVQLVQSGAEVKKPGASVKVSCKASGYTFTTYGISWVRQAPGQGLEWMGWINPNSGDTNYAQKFQGRVTMTRDTSTSTVYMELSSLRSEDTAVYYCARLTTATDSFDLWGRGTLVTVSS
VL: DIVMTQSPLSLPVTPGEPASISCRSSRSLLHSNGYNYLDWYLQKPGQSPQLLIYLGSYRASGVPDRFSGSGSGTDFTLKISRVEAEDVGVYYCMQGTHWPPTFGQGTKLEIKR
notes: scFv
For the molecule B8, the values for the binding result with huCLL1-K244-Avi-Tev-His and in the experiment with huCLL1-Q244-Avi-Tev-His were “no binding” and “binds”, respectively.

B9: Polypeptide No. 44 (scFv, V domains shown)
VH: EVQLLESGGGLVQPGGSLRLSCAASGFTFSSYAMHWVRQAPGKGLEWVADISGSGGLTYYADSVKGRFTISRDNSKNTLYLQMNSLRAEDTAVYYCAREGDQYSSSSFFDYWGQGTLVTVSS
VL: not shown
notes: scFv
Consider B9, for which the binding result in the experiment with huCLL1-K244-Avi-Tev-His is reported as “binds”; with huCLL1-Q244-Avi-Tev-His, “no binding”.

B10: Polypeptide No. 71 (scFv, V domains shown)
VH: EVQLLESGGGLVQPGGSLRLSCAASGFTFSNHYMSWVRQAPGKGLEWVAVIWPDGSKEYYADSVKGRFTISRDNSKNTLYLQMNSLRAEDTAVYYCAREDYYGSGMDYWGQGTLVTVSS
VL: DIQMTQSPSSLSASVGDRVTITCQASQDISNYLNWYQQKPGKAPKLLIYGASTLQSGVPSRFSGSGSGTDFTLTISSLQPEDFATYYCQQYDSYPPTFGGGTKVEIKR
notes: scFv
On to B10, for which the binding result with huCLL1-K244-Avi-Tev-His is on record as “no binding”; with huCLL1-Q244-Avi-Tev-His it was “binds”.

B11: Polypeptide No. 81 (scFv, V domains shown)
VH: EVQLLESGGGLVQPGGSLRLSCAASGFTFSDHYMSWVRQAPGKGLEWVSIIYPDGKTYYADSVKGRFTISRDNSKNTLYLQMNSLRAEDTAVYYCAREGSYGDYDGMDVWGQGTTVTVSS
VL: DIQMTQSPSSLSASVGDRVTITCQASQDISNYLNWYQQKPGKAPKLLIYGASTLQSGVPSRFSGSGSGTDFTLTISSLQPEDFATYYCQQSYSTPWTFGQGTKLEIKR
notes: scFv
Turning to B11, the binding result is given as “no binding” with huCLL1-K244-Avi-Tev-His and “binds” in the experiment with huCLL1-Q244-Avi-Tev-His.

B12: Polypeptide No. 76 (scFv, V domains shown)
VH: QVQLVQSGAEVKKPGASVKVSCKASGYTFTTYYMHWVRQAPGQGLEWMGIINVSAGTTSYAQKFQGRVTMTRDTSTSTVYMELSSLRSEDTAVYYCAKEPYPHQSGWFFDYWGQGTLVTVSS
VL: DIQMTQSPSSLSASVGDRVTITCQASQDINNYLNWYQQKPGKAPKLLIYDASNLETGVPSRFSGSGSGTDFTLTISSLQPEDFATYYCQQANSFPLTFGGGTKVEIKR
notes: scFv
Regarding B12, the results for the binding result with huCLL1-K244-Avi-Tev-His and with huCLL1-Q244-Avi-Tev-His were “no binding” and “binds”, respectively.

B13: Polypeptide No. 49 (scFv, V domains shown)
VH: EVQLVESGGGLVKPGGSLRLSCAASGFTFSDYALHWVRQAPGKGLEWVSLISGDGGSTYYADSVKGRFTISRDDSKNTLYLQMNSLKTEDTAVYYCARDLGGERSYWGQGTLVTVSS
VL: DIQMTQSPSSLSASVGDRVTITCRASQSISTWLAWYQQKPGKAPKLLIYAASTLQSGVPSRFSGSGSGTDFTLTISSLQPEDFATYYCLQDYSYPPTFGQGTKVEIKR
notes: scFv
With B13, the binding result with huCLL1-K244-Avi-Tev-His was “binds”; in the experiment with huCLL1-Q244-Avi-Tev-His it was “no binding”.

B14: Polypeptide No. 45 (scFv, V domains shown)
VH: EVQLVESGGGLVKPGGSLRLSCAASGFTFDEFGMNWVRQAPGKGLEWISYISGDSGYTNCADSVKGRFTISRDDSKNTLYLQMNSLKTEDTAVYYCAAGYGGYYFDYWGQGTLVTVSS
VL: DIQMTQSPSSLSASVGDRVTITCQASQDIDIYLNWYQQKPGKAPKLLIYAASTLESGVPSRFSGSGSGTDFTLTISSLQPEDFATYYCQQSYSTPPTFGGGTKVEIKR
notes: scFv
Consider B14, for which the binding result with huCLL1-K244-Avi-Tev-His is listed as “binds”; in the experiment with huCLL1-Q244-Avi-Tev-His, “no binding”.

B15: Polypeptide No. 78 (scFv, V domains shown)
VH: QVQLVQSGAEVKKPGSSVKVSCKASGGTFSRYPFSWVRQAPGQGLEWMGWMNPNNGDTGYAQKFQGRVTITADESTSTAYMELSSLRSEDTAVYYCARGDYPYMDVWGKGTTVTVSS
VL: DIQMTQSPSSLSASVGDRVTITCQASQDISNYLNWYQQKPGKAPKLLIYDASNLETGVPSRFSGSGSGTDFTLTISSLQPEDFATYYCQQSYSIPYTFGQGTKLEIKR
notes: scFv
Consider B15, for which the binding result with huCLL1-K244-Avi-Tev-His is given as “no binding”; with huCLL1-Q244-Avi-Tev-His, “binds”.

B16: Polypeptide No. 48 (scFv, V domains shown)
VH: EVQLLESGGGLVQPGGSLRLSCAASGFNFDDYAMHWVRQAPGKGLEWVSVIYSGGSTYYADSVKGRFTISRDNSKNTLYLQMNSLRAEDTAVYYCTRHDFDYWGQGTLVTVSS
VL: DIQMTQSPSSLSASVGDRVTITCRASQSISTYVNWYQQKPGKAPKLLIYAASSLQSGVPSRFSGSGSGTDFTLTISSLQPEDFATYYCQQDYSYPYTFGQGTKVEIKR
notes: scFv
In the case of B16, the binding result was “binds” with huCLL1-K244-Avi-Tev-His and “no binding” with huCLL1-Q244-Avi-Tev-His.

B17: Polypeptide No. 46 (scFv, V domains shown)
VH: QVQLVQSGAEVKKPGASVKVSCKASGYTFTSYYMHWVRQAPGQGLEWMGMINPSAGSTSYAQKFQGRVTMTRDTSTSTVYMELSSLRSEDTAVYYCASVDSSGWYAPFDYWGQGTLVTVSS
VL: DIQMTQSPSSLSASVGDRVTITCRASQSISTYLNWYQQKPGKAPKLLIYDASNLETGVPSRFSGSGSGTDFTLTISSLQPEDFATYYCQQANSFPPTFGGGTKVEIKR
notes: scFv
As to B17, the binding result is “binds” in the experiment with huCLL1-K244-Avi-Tev-His and “no binding” with huCLL1-Q244-Avi-Tev-His.

B18: Polypeptide No. 43 (scFv, V domains shown)
VH: QVQLVQSGAEVKKPGASVKVSCKASGYTFTNYYMHWVRQAPGQGLEWLGWISPYSGDTKYAQTLQGRVTMTRDTSTSTVYMELSSLRSEDTAVYYCARESMDRLDYWGQGTLVTVSS
VL: DIQMTQSPSSLSASVGDRVTITCRASQSISTYLNWYQQKPGKAPKLLIYDASNLETGVPSRFSGSGSGTDFTLTISSLQPEDFATYYCQQSYSTPVLTFGGGTKVEIKR
notes: scFv
Consider B18, for which the binding result is on record as “binds” with huCLL1-K244-Avi-Tev-His and “no binding” with huCLL1-Q244-Avi-Tev-His.

Source of the values: US20240101668A1 (WUGEN, published 2024).
